Where a chain is given by its changes, count along the chain named.
B1: mAb16711 (antibody, V domains shown)
VH: QVQLVESGGGVVQPGRSLRLSCAASGFTFSTYGIHWVRQAPGKGLEWVAVILHDGSSNYYAESVKGRFIISRDNSKNTLYLQMNSLRAEDTALYYCTKRYSEAAGPNWFDPWGQGTLVTVSS
VL: DIQMTQSPSSVSASVGDRVTITCRASRGISSWLAWYQQKPGKAPKLLIHAASSLQSGVPSRFSGSGSGTDFTLTISSLQPEDFATYYCQQAISFPFTFGPGTKVDIK
notes: Anti-BCMA monoclonal antibody; human Fc (captured by anti-human Fc)
B2: mAb16747 (REGN4515) (antibody, V domains shown)
VH: QVQLVESGGGLVKPGGSLRLSCAASGFTFSDYYISWIRQAPGKGLEWVSYISSSGSSIKYADSVKGRFTISRDNAKNSLYLQMNSLRAEDTAVYYCAREGGNYGMDVWGQGTTVTVSS
VL: DIQMTQSPSSVSASVGDRVTITCRASQGINNWLVWYQQKPGKAPKLLIYAATSLQSGVPSRFSGSGSGTDFTLTISSLQPEDFATYYCQQANSFPPTFGQGTKLEIK
notes: as for B1
B3: mAb16716 (antibody, V domains shown)
VH: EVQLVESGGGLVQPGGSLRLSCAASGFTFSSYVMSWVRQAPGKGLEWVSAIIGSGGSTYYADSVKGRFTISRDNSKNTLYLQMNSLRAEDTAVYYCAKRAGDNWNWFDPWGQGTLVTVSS
VL: B1 VL with V15L, R27Q, Q38R, H49Y, T69A, I92K, F94V
notes: as for B1
B4: mAb16732 (REGN4514) (antibody, V domains shown)
VH: EVQLVESGGGLVQPGRSLRLSCAASGFTFDDYAMHWVRQAPGKGLEWVSGISWNSGNMGYADSVKGRFTISRDNAKNSLFLQMHSLRAEDTAFYYCAKVRLTAFDFWGQGTLVTVSS
VL: DIQMTQSPSSLSASVGDRVTITCRTSQSIGNYLNWFQQKPGKAPKLLIYTASSLQNGVPSRFTGSGSGTDFTLTISSLQPEDFVIYYCQQSFSTPYTFGQGTKLEIK
notes: as for B1
B5: mAb21581, bivalent anti-BCMA antibody (parent of REGN5458) (antibody, V domains shown)
VH: EVQLVESGGGLVQPGGSLRLSCAASGFTFSNFWMTWVRQAPGKGLEWVANMNQDGSEKYYVDSVKGRFTISRDNAKSSLYLQMNSLRAEDTAVYYCARDREYCISTSCYDDFDYWGQGTLVTVSS
VL: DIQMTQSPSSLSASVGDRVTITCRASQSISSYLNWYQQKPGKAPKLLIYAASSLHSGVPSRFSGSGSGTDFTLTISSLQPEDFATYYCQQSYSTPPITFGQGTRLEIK

Target: T1, human BCMA-MFC (extracellular domain of human BCMA with C-terminal mFc tag) (human)
T1 construct: also called hBCMA.mFc
T1 chain: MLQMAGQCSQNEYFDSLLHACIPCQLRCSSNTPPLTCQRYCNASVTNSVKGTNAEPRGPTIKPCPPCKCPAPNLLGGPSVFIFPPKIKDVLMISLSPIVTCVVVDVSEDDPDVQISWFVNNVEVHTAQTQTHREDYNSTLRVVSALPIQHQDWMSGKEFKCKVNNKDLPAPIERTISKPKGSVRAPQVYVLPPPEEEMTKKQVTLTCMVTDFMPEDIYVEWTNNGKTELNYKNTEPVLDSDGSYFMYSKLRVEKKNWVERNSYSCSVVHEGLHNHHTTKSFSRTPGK
Experiment: SPR, Biacore, mAb captured by anti-hFc, 25 C
Protocol: (§1) The CM5 Biacore sensor surface was derivatized by amine coupling with a monoclonal mouse anti-human Fc antibody (GE, #BR-1008-39) to capture purified anti-BCMA mAbs and anti-BCMA×anti-CD3 bispecific mAbs. All Biacore binding studies were performed in a buffer composed of 0.01M HEPES pH 7.4, 0.15M NaCl, 3 mM EDTA, 0.05% v/v Surfactant P20 (HBS-ET running buffer). […] Antigen samples were then injected over the anti-BCMA and anti-BCMA×anti-CD3 bispecific mAbs captured surfaces at a flow rate of 30 μL/minute. Antibody-reagent association was monitored for 5 minutes while dissociation in HBS-ET running buffer was monitored for 10 minutes. All of the binding kinetics experiments were performed at 25° C. Kinetic association (kₐ) and dissociation (kd) rate constants were determined by fitting the real-time sensorgrams to a 1:1 binding model using Scrubber 2.0c curve fitting software. Binding dissociation equilibrium constants (KD) and dissociative half-lives (t½) were calculated from the kinetic rate constants as: […]

First: B1
Second: B2
The “30 nM hBCMA.mFc Bind (RU)” value of the first is lower: 114 RU for the first, 146 RU for the second.

First: B3
Second: B4
The “30 nM hBCMA.mFc Bind (RU)” value of the first is lower: 120 RU for the first, 124 RU for the second.

First: B1
Second: B2
The Kd of the first is 1.6-fold higher: 0.103 nM for the first, 0.0633 nM for the second.

First: B3
Second: B4
The Kd of the first is 2.3-fold higher: 0.0968 nM for the first, 0.0422 nM for the second. The second binds more tightly here.

Going from B1 to B2, the koff falls from 0.00019 s⁻¹ to 8.95e-05 s⁻¹ (2.1-fold).

First: B3
Second: B4
The koff of the first is 1.8-fold higher: 8.35e-05 s⁻¹ for the first, 4.53e-05 s⁻¹ for the second.

B1 and B2 are within 1.5-fold of each other in kon: 1.85e+06 M⁻¹ s⁻¹ for the first, 1.41e+06 M⁻¹ s⁻¹ for the second.

B3 and B4 are within 1.5-fold of each other in kon: 862000 M⁻¹ s⁻¹ for the first, 1.07e+06 M⁻¹ s⁻¹ for the second.

First: B1
Second: B2
The t½ of the first is 2.1-fold lower: 60.8 min for the first, 129 min for the second.

Going from B3 to B4, the t½ rises from 138 min to 255 min (1.8-fold).

Each binder was assayed against T2, monkey BCMA-MMH (monkey BCMA with C-terminal myc-myc-hexahistidine tag) (monkey) (assay: SPR, Biacore, mAb captured by anti-hFc, 25 C).
T2 construct: The words 'extracellular domain' stand before human BCMA in the sentence and are read as applying to the monkey construct too; also called mfBCMA.mmh
Protocol: as §1

First: B1
Second: B3
The “90 nM mfBCMA.mmh Bind (RU)” value of the first is lower: -0.5 RU for the first, 0.8 RU for the second.

B3: no binding (tested: 90 nM).

What follows are binders tested against T3, monkey BCMA-MFC (monkey BCMA with C-terminal mFc tag) (monkey) (assay: SPR, Biacore, mAb captured by anti-hFc, 25 C).
T3 construct: also called mfBCMA.mFc
Protocol: as §1

First: B1
Second: B2
The “30 nM mfBCMA.mFc Bind (RU)” value of the first is lower: 0.9 RU for the first, 101 RU for the second.

B4 was tested, and the “30 nM mfBCMA.mFc Bind (RU)” value was 40.3 RU.

B1: no binding (tested: 30 nM).

First: B2
Second: B4
The Kd of the first is 4.4-fold lower: 3.37 nM for the first, 14.7 nM for the second. The first binds more tightly here.

B2 and B4 are within 1.5-fold of each other in koff: 0.00716 s⁻¹ for the first, 0.00724 s⁻¹ for the second.

First: B2
Second: B4
The kon of the first is 4.3-fold higher: 2.13e+06 M⁻¹ s⁻¹ for the first, 492000 M⁻¹ s⁻¹ for the second.

B2 and B4 are the same in t½: 1.6 min for the first, 1.6 min for the second.

Target: T4, human BCMA-MMH (extracellular domain of human BCMA with C-terminal myc-myc-hexahistidine tag) (human)
T4 construct: Monomeric antigen; the entry holds the ectodomain and the myc-myc-His tag; also called hBCMA.mmh; hBCMA.mmH
T4 chain: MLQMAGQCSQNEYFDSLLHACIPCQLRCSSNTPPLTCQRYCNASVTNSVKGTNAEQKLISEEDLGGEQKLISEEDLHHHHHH
Experiment: SPR, Biacore, mAb captured by anti-hFc, 25 C
Protocol: as §1

First: B1
Second: B2
The “90 nM hBCMA.mmh Bind (RU)” value of the first is lower: 22.2 RU for the first, 31.4 RU for the second.

First: B3
Second: B4
The “90 nM hBCMA.mmh Bind (RU)” value of the first is higher: 26.4 RU for the first, 25.3 RU for the second.

Going from B1 to B2, the Kd rises from 1.73 nM to 2.84 nM (1.6-fold).

B3 and B4 are within 1.5-fold of each other in Kd: 3.56 nM for the first, 2.69 nM for the second.

B1 and B2 are within 1.5-fold of each other in koff: 0.00347 s⁻¹ for the first, 0.00247 s⁻¹ for the second.

B3 and B4 are within 1.5-fold of each other in koff: 0.00299 s⁻¹ for the first, 0.00285 s⁻¹ for the second.

Compared with B1, B2 is 2.3-fold lower in kon: 2.01e+06 M⁻¹ s⁻¹ for the first, 869000 M⁻¹ s⁻¹ for the second.

B3 and B4 are within 1.5-fold of each other in kon: 841000 M⁻¹ s⁻¹ for the first, 1.06e+06 M⁻¹ s⁻¹ for the second.

B1 and B2 are within 1.5-fold of each other in t½: 3.3 min for the first, 4.7 min for the second.

B3 and B4 are within 1.5-fold of each other in t½: 3.9 min for the first, 4.1 min for the second.

Target: T5, mouse BCMA-MFC (BCMA with C-terminal mFc tag) (mouse)
T5 construct: Tested at 30 nM only
T5 chain: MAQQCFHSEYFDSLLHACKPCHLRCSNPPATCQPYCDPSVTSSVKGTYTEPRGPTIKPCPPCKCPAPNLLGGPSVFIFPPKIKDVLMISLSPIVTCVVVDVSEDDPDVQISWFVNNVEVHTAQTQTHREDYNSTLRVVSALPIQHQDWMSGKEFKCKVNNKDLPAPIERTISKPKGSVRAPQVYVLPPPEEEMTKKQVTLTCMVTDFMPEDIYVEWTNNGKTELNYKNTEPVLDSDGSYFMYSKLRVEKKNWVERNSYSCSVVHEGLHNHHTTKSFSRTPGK
Experiment: SPR, Biacore, mAb captured by anti-hFc, 25 C
Protocol: as §1

First: B1
Second: B2
The “30 nM mfBCMA.mFc Bind (RU) (mouse BCMA-MFC by the table's title)” value of the first is lower: 90 RU for the first, 108 RU for the second.

Compared with B3, B4 is higher in “30 nM mfBCMA.mFc Bind (RU) (mouse BCMA-MFC by the table's title)” value: 33.4 RU for the first, 110 RU for the second.

Going from B1 to B2, the Kd rises from 1.02 nM to 4.42 nM (4.3-fold).

First: B3
Second: B4
The Kd of the first is 28-fold higher: 18.8 nM for the first, 0.677 nM for the second.

Compared with B1, B2 is 3.8-fold higher in koff: 0.0011 s⁻¹ for the first, 0.00418 s⁻¹ for the second.

Going from B3 to B4, the koff falls from 0.00385 s⁻¹ to 0.000269 s⁻¹ (14-fold).

B1 and B2 are within 1.5-fold of each other in kon: 1.07e+06 M⁻¹ s⁻¹ for the first, 947000 M⁻¹ s⁻¹ for the second.

First: B3
Second: B4
The kon of the first is 1.9-fold lower: 205000 M⁻¹ s⁻¹ for the first, 397000 M⁻¹ s⁻¹ for the second.

Compared with B1, B2 is 3.8-fold lower in t½: 10.5 min for the first, 2.8 min for the second.

First: B3
Second: B4
The t½ of the first is 14-fold lower: 3 min for the first, 43 min for the second.

These binders were tested against T6, human BCMA on cells (endogenous, on multiple myeloma and lymphoma cell lines) (human, UniProt Q02223 1-184) (assay: cell-based or functional assay).
T6 sequence: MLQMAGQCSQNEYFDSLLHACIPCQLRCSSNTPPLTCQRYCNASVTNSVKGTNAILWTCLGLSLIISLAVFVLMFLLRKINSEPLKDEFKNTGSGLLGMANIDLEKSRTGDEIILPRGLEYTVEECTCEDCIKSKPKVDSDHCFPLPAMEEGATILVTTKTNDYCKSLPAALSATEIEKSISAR

With B5 the “MFI fold change over cells incubated in media only, MM1S, 18 h with 67 nM antibody, then stained with the same antibody” value was 7.3 fold.

In the case of B5, the “MFI fold change over cells incubated in media only, MM1S, 18 h with 667 nM antibody, then stained with the same antibody” value is reported as 7 fold.

Target: T6, human BCMA on cells (endogenous, on …)
Experiment: cell-based or functional assay
Remark: another data set of the same source

First: B5
Second: B1
The “MFI fold change over cells incubated in media only, Molp8, 18 h with 67 nM antibody, then stained with the same antibody” value of the first is lower: 2.3 fold for the first, 3.5 fold for the second.

B2 was tested, and the “MFI fold change over cells incubated in media only, Molp8, 18 h with 67 nM antibody, then stained with the same antibody” value was 2.2 fold.

Compared with B5, B1 is lower in “MFI fold change over cells incubated in media only, Molp8, 18 h with 667 nM antibody, then stained with the same antibody” value: 3.7 fold for the first, 3 fold for the second.

For B2, the “MFI fold change over cells incubated in media only, Molp8, 18 h with 667 nM antibody, then stained with the same antibody” value was 0.6 fold.

Target: T6, human BCMA on cells (endogenous, on …)
Experiment: cell-based or functional assay
Remark: another data set of the same source

Compared with B5, B1 is higher in “MFI fold change over cells incubated in media only, U266, 18 h with 67 nM antibody, then stained with the same antibody” value: 1.8 fold for the first, 2.2 fold for the second.

B2 was tested, and the “MFI fold change over cells incubated in media only, U266, 18 h with 67 nM antibody, then stained with the same antibody” value was 1.5 fold.

First: B5
Second: B1
The “MFI fold change over cells incubated in media only, U266, 18 h with 667 nM antibody, then stained with the same antibody” value of the first is higher: 2.3 fold for the first, 2.2 fold for the second.

In the case of B2, the “MFI fold change over cells incubated in media only, U266, 18 h with 667 nM antibody, then stained with the same antibody” value is reported as 1.7 fold.

Target: T6, human BCMA on cells (endogenous, on …)
Experiment: cell-based or functional assay
Remark: another data set of the same source

Compared with B5, B1 is higher in “MFI fold change over cells incubated in media only, NCI-H929, 18 h with 67 nM antibody, then stained with the same antibody” value: 1.2 fold for the first, 2.8 fold for the second.

For B2, the “MFI fold change over cells incubated in media only, NCI-H929, 18 h with 67 nM antibody, then stained with the same antibody” value was 1.8 fold.

Compared with B5, B1 is higher in “MFI fold change over cells incubated in media only, NCI-H929, 18 h with 667 nM antibody, then stained with the same antibody” value: 1.4 fold for the first, 2.1 fold for the second.

For B2, the “MFI fold change over cells incubated in media only, NCI-H929, 18 h with 667 nM antibody, then stained with the same antibody” value was 2.1 fold.

Source: US20220306758A1 (Regeneron, published 2022)
